Measured values taken from paper PMC3897701, “Human and Mouse CD137 Have Predominantly Different Binding CRDs to Their Respective Ligands” (PLoS ONE, 2014).

Biological target: T1, hCD137L-mFc (human CD137L extracellular domain and mouse IgG-Fc fusion protein) (human, UniProt P41273 50-254)
T1 construct: human CD137 ligand (4-1BBL), extracellular domain; a silent g to c change at base 405 destroys an AgeI site without any amino acid changed; also called hL; hL-mFc; source: COS-7, transfected, purified (rProtein A Sepharose)
T1 sequence (P41273 50-254): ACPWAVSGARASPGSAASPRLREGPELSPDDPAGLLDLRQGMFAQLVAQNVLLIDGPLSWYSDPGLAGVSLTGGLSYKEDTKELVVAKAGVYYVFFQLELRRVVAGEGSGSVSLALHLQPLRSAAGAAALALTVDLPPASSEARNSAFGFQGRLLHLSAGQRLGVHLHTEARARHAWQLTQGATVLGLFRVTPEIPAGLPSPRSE
Test: ELISA; purified hCD137L-mFc coated at 1 µg/ml; expression supernatants of human or mouse CD137-hFc fragments added; goat anti-human IgG-HRP; positive if P/N>2.1
Conditions: one partner purified

binding relative to that of human CD137: ~30%
B1: mouse CD137 extracellular domain with hFc tail (mE-hFc) (Fc fusion, UniProt P20334 24-185, looked up)
chain: VQNSCDNCQPGTFCRKYNPVCKSCPPSTFSSIGGQPNCNICRVCAGYFRFKKFCSSTHNAECECIEGFHCLGPQCTRCEKDCRPGQELTKQGCKTCSLGTFNDQNGTGVCRPWTNCSLDGRSVLKTGTTEKDVVCGPPVVSFSPSTTISVTPEGGPGGHSLQ
notes: signal peptide in the construct; mouse CD137 (4-1BB), entire extracellular region with its own leader (1-23 aa), CRDI-IV and the hinge-like region (STP), residues 1-185; Runs as a dimer on SDS-PAGE without 2-ME; also called mE-Fc; mCD137-hFc; source: COS-7, transfected (DEAE dextran); expression supernatant, and purified (rProtein A Sepharose); not shown: Fc (human IgG1 hinge-CH2-CH3), …
